Assay results published in doi:10.1101/2023.08.13.546412 (bioRxiv, 2023).

Target: T1, GST-AtSK21 (Arabidopsis thaliana, UniProt Q39011 1-380)
T1 sequence (looked up): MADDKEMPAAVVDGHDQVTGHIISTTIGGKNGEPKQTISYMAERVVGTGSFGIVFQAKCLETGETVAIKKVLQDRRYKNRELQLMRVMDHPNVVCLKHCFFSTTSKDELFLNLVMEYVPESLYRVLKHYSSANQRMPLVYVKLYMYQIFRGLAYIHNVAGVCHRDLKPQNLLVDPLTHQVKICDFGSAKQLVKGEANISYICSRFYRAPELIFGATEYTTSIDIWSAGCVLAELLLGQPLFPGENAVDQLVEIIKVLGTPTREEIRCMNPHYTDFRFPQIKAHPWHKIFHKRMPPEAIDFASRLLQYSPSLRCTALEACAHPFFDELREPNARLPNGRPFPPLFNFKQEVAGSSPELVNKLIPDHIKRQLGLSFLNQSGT
Experiment: pull-down

B1: MBP-WOX5 (natural protein, Arabidopsis thaliana, UniProt Q8H1D2 1-182, looked up)
chain: MSFSVKGRSLRGNNNGGTGTKCGRWNPTVEQLKILTDLFRAGLRTPTTDQIQKISTELSFYGKIESKNVFYWFQNHKARERQKRRKISIDFDHHHHQPSTRDVFEISEEDCQEEEKVIETLQLFPVNSFEDSNSKVDKMRARGNNQYREYIRETTTTSFSPYSSCGAEMEHPPPLDLRLSFL
B1: binds.
